# Laboratory results taken from doi:10.1101/2021.07.08.451649 (bioRxiv, 2021).
# B1: PVI.V6-14 Fab (Fab, V domains shown)
# VH: QVQLQESGPGLVKPSETLSLTCTVSGGSISSSSYYWGWIRQPPGKGLEWIGSIYYSGSTYYNPSLKSRVTISVDTSKNQFSLKLSSVTAADTAVYYCARCRPEYYFGSGSYLDFDY
# VL: DIQMTQSPSSVSASVGDRVTITCRASQGISSWLAWYQQKPGKAPKLLIYAASSLQSGVPSRFSGSGSGTDFTLTISSLQPEDFATYYCQQANSFPLTFGGGTKVEIK
# Molecular target: SARS-CoV-2 HexaPro spike glycoprotein (SARS-CoV-2, ancestral (Wuhan-Hu-1), …, stabilised)
# Test: cryo-EM structure
binder,measurement,value
B1,stoichiometry N,2 Fabs per spike trimer
